Reference: PMC12021450

Tests used:
[1] = target: Trypanosoma brucei MSC-associated protein 1 (MCP1), wild type, His6-tagged (Trypanosoma brucei); assay: mass photometry; protein alone, 50 nM final in 50 mM HEPES-KOH pH 7.6, 50 mM NaCl, 2 mM MgCl2, 0.5 mM TCEP; pre-incubated at 2 uM at room temperature for 10 min; no tRNA; monomer to dimer
[2] = target: Trypanosoma brucei MSC-associated protein 1 (MCP1), wild type, His6-tagged (Trypanosoma brucei); assay: mass photometry; 50 nM protein with 25 nM tRNA^Ala (complex formed at 2 uM protein : 1 uM tRNA^Ala, room temperature, 10 min) in 50 mM HEPES-KOH pH 7.6, 50 mM NaCl, 2 mM MgCl2, 0.5 mM TCEP; monomer to dimer

- percent of the protein population that is dimeric [1]: 17%
- stoichiometry N [1]: 2
- percent of the species in the dimer peak, with tRNA^Ala [2]: 31%
- stoichiometry N [2]: 2
Substance: Trypanosoma brucei MSC-associated protein 1 (MCP1), wild type, His6-tagged (natural protein)
